Measured values from the supplement of paper PMC9233669.
This sample holds only a part of the variants without activity.

Key:
[1] = system: biotinyl-Leu-oxazolone; experiment: self-aminoacylation, catalytic enhancement (BLO) (fold over background); higher = more active; k-Seq, kA / k0A0; sequences stand for … in GGGAAUGGAUCCACAUCUACGAAUUC…UUCACUGCAGACUUGACGAAGCUG
Method in brief: (§1)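 Catalytic enhancement equals the median kA over the uncatalyzed rate, the latter read from the low-activity peak of a bimodal Gaussian fit. Values of kA came from fitting each sequence's fraction reacted to a pseudo-first-order model, with 1000 bootstraps. Reacted RNA was captured with streptavidin and quantified by triplicate qPCR and Illumina sequencing after 90 minutes at room temperature with 2–1250 μM biotinyl-aminoacyl-oxazolone and 0.43 μM mutagenized RNA pools bearing a 21-nt variable region.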

[2] = system: biotinyl-Met-oxazolone; experiment: self-aminoacylation, catalytic enhancement (BMO) (fold over background); higher = more active; k-Seq, kA / k0A0; sequences stand for … in GGGAAUGGAUCCACAUCUACGAAUUC…UUCACUGCAGACUUGACGAAGCUG
Method in brief: as §1

[3] = system: biotinyl-Trp-oxazolone; experiment: self-aminoacylation, catalytic enhancement (BWO) (fold over background); higher = more active; k-Seq, kA / k0A0; sequences stand for … in GGGAAUGGAUCCACAUCUACGAAUUC…UUCACUGCAGACUUGACGAAGCUG
Method in brief: as §1

[4] = system: biotinyl-Phe-oxazolone; experiment: self-aminoacylation, catalytic enhancement (BFO) (fold over background); higher = more active; k-Seq, kA / k0A0; sequences stand for … in GGGAAUGGAUCCACAUCUACGAAUUC…UUCACUGCAGACUUGACGAAGCUG
Method in brief: as §1

[5] = system: biotinyl-Val-oxazolone; experiment: self-aminoacylation, catalytic enhancement (BVO) (fold over background); higher = more active; k-Seq, kA / k0A0; sequences stand for … in GGGAAUGGAUCCACAUCUACGAAUUC…UUCACUGCAGACUUGACGAAGCUG
Method in brief: as §1

[6] = system: biotinyl-Ile-oxazolone; experiment: self-aminoacylation, catalytic enhancement (BIO) (fold over background); higher = more active; k-Seq, kA / k0A0; sequences stand for … in GGGAAUGGAUCCACAUCUACGAAUUC…UUCACUGCAGACUUGACGAAGCUG
Method in brief: as §1

Sequence | self-aminoacylation [1] | self-aminoacylation [2] | self-aminoacylation [3] | self-aminoacylation [4] | self-aminoacylation [5] | self-aminoacylation [6]
CCCCACUUCAAGCAAUCGAUC [Fam1B.1 aminoacylation ribozyme variant] | 0.67 | 0.533 | 1.27 | 2.79 | 0.93 | 0.768
CUACGUCAAACAAUGGGUCUG [Fam1A.1 aminoacylation ribozyme variant] | 1.62 | 1.22 | 1.18 | 2.25 | 1.35 | 1.38
AUUCACCUAGGGCAUUGGGUG [Fam2.2 aminoacylation ribozyme variant] | 8.05 | 6.54 | 6.12 | 42.8 | 3.49 | 3.74
AAGUAUGCUAAUAGUCUCAAG [Fam3.1 aminoacylation ribozyme variant] | 1.6 | 1.55 | 2.69 | 8.35 | 1.31 | 1.43
AUUCACCGUGGUCAUCGGGUG [Fam2.2 aminoacylation ribozyme variant] | 9.19 | 9.04 | 8.84 | 59.5 | 6.1 | 5.23
CCACACUUCAAGCAAUCGGGG [Fam1B.1 aminoacylation ribozyme variant] | 2.28 | 1.21 | 2.3 | 1.38 | 2.19 | 1.71
AUUAUCCUGGUCAUCGAGUGA [Fam2.1 aminoacylation ribozyme variant] | 13.5 | 13 | 14.5 | 20.7 | 6.5 | 6.23
AUUCACCUACGUCAGCGGGUG [Fam2.2 aminoacylation ribozyme variant] | 6.17 | 4.72 | 4.14 | 31.4 | 2.71 | 2.95
CAAUACUUCAAGCAAUCGGUC [Fam1B.1 aminoacylation ribozyme variant] | 0.986 | 0.799 | 5.14 | 9.23 | 0.912 | 0.907
GUACUUCAAAGAAUCGGUCUG [Fam1A.1 aminoacylation ribozyme variant] | 1.46 | 1.07 | 4.9 | 3.28 | 1.24 | 1.26
AAGUCUGCUAAUAGUCGGAAG [Fam3.1 aminoacylation ribozyme variant] | 1.87 | 2.09 | 7.78 | 18.4 | 1.61 | 1.25
CUACCUCAAACAAUCGUUCUG [Fam1A.1 aminoacylation ribozyme variant] | 0.588 | 0.525 | 0.863 | 0.62 | 0.672 | 0.711
AUUACCCUGGGUAUCGAGUGA [Fam2.1 aminoacylation ribozyme variant] | 10.9 | 9.85 | 11.2 | 57.8 | 4.62 | 4.51
CCAAACUUGAAGCAAUCGGUC [Fam1B.1 aminoacylation ribozyme variant] | 0.828 | 0.87 | 0.693 | 0.596 | 0.996 | 0.898
AAGUCUGCUAAUAGUCGCAGG [Fam3.1 aminoacylation ribozyme variant] | 2.25 | 2.07 | 1.97 | 5.31 | 1.44 | 1.7
AUACACCCAGGUCAUCGGGUG [Fam2.2 aminoacylation ribozyme variant] | 4.64 | 5.29 | 5.99 | 32.7 | 3.3 | 3.78
CUACUUCACACAAUCUGUCUG [Fam1A.1 aminoacylation ribozyme variant] | 0.573 | 0.558 | 0.513 | 0.903 | 0.699 | 0.655
AAGUUUGCUAAUUCUCGCAAG [Fam3.1 aminoacylation ribozyme variant] | 1.08 | 1.06 | 2.64 | 0.747 | 0.999 | 1.26
CCGCACUUCAAGCAAUGGGUC [Fam1B.1 aminoacylation ribozyme variant] | 1.04 | 0.802 | 1.08 | 1.13 | 1.21 | 0.918
CCACACUCCAAGGAAUCGGUC [Fam1B.1 aminoacylation ribozyme variant] | 1.08 | 1.32 | 1.34 | 1.46 | 1.31 | 1.35
AUUACCGGGGUCAUCGAGUGA [Fam2.1 aminoacylation ribozyme variant] | 6.14 | 5.81 | 6.27 | 33.8 | 3.67 | 3.48
CCAAACUUCAAGCAAUAGGUC [Fam1B.1 aminoacylation ribozyme variant] | 0.527 | 0.574 | 0.458 | 0.911 | 0.602 | 0.605
AUUCACUUAGGUCAUCGAGUG [Fam2.2 aminoacylation ribozyme variant] | 2.75 | 2.42 | 1.99 | 4.43 | 1.64 | 1.68
AUUACCGUGGUCAUCGAGUGA [Fam2.1 aminoacylation ribozyme variant] | 6.4 | 6.27 | 7.62 | 35.1 | 3.68 | 3.39
CUACUUCAAACAAUCGGACUC [Fam1A.1 aminoacylation ribozyme variant] | 0.624 | 0.563 | 2.57 | 5.7 | 0.7 | 0.675
AUUCGCCUUGGUCAUCGGGUG [Fam2.2 aminoacylation ribozyme variant] | 9.99 | 8.81 | 8.13 | 74.5 | 6.21 | 5
